The experiment deals with T1, human IL-11 (human, UniProt P20809 22-199).
T1 construct: Invigate recombinant protein; biotinylated when immobilized in the Di-complex ELISA; also called hIL11; hIL-11
T1 sequence: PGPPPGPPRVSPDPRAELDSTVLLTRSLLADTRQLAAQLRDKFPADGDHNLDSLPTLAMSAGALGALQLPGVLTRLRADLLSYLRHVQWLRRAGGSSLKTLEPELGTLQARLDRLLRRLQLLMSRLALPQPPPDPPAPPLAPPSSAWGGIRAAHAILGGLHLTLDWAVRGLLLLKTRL
Briefly: Di-complex ELISA, murine IL11RA-Fc binding to immobilized hIL-11, competition.

B1: TPP-29697 (bispecific antibody, IgG1)
chain 1: QVQLVESGGGVVQPGRSLRLSCAASGFTFSHYDMHWVRQAPGKGLEWVAVISYHGSVKFYADSVKGRFTISRDNSKNTLYLQMNSLRAEDTAVYYCARTPGFHFDYWGQGTLVTVSSGGGGSGGGGSGGGGSQSVLTQPPSASGTPGQRVTISCSGSSSNIGSNYVSWYQQLPGTAPKLLIYYDDLRPSGVPDRFSGSKSGTSASLAISGLRSEDEADYYCSAWDDSLSGVVFGGGTKLTVLGGGGSGGGGSGGGGSGVECPPCPAPPVAGPSVFLFPPKPKDTLMISRTPEVTCVVVGVSHEDPEVKFNWYVDGVEVHNAKTKPREEQYNSTYRVVSVLTVLHQDWLNGKEYKCKVSNKQLPSPIEKTISKAKGQPREPQVYTLPPCRDELTKNQVSLWCLVKGFYPSDIAVEWESNGQPENNYKTTPPVLDSDGSFFLYSKLTVDKSRWQQGNVFSCSVMHEALHNHYTQKSLSLSPGK
chain 2: EVQLLESGGGLVQPGGSLRLSCAASGFTFSSYGMHWVRQAPGKGLEWVAVISYDGSYKYYADSVKGRFTISRDNSKNTLYLQMNSLRAEDTAVYYCAAGVPDYWGQGTLVTVSSGGGGSGGGGSGGGGSQSVLTQPPSASGTPGQRVTISCSGSSSNIGSDYDVHWYQQLPGTAPKLLIYSNEERPSGVPDRFSGSKSGTSASLAISGLRSEDEADYYCSAWDSSLSGPVFGGGTKLTVLGGGGSGGGGSGGGGSGVECPPCPAPPVAGPSVFLFPPKPKDTLMISRTPEVTCVVVGVSHEDPEVKFNWYVDGVEVHNAKTKPREEQYNSTYRVVSVLTVLHQDWLNGKEYKCKVSNKQLPSPIEKTISKAKGQPREPQVCTLPPSRDELTKNQVSLSCAVKGFYPSDIAVEWESNGQPENNYKTTPPVLDSDGSFFLVSKLTVDKSRWQQGNVFSCSVMHEALHNHYTQKSLSLSPGK
notes: scFv-kih-hIgG1 with Fc-silencing mutations; bispecific comprising CDRs of TPP-29528 and TPP-29519
B1 returned an IC50 of 1.6 nM.

The IC50 is the concentration at which inhibition is half-maximal. A higher IC50 goes with a need for much substance.

These data come from patent US20240317847A1 (Bayer, published 2024).
